One assay has as its system HCoV-OC43 gRNA and sgRNA. The format is binding. The settings on record: for target (unweighted spectral count, OC43 Probe II capture) / target (spectral count) / background (spectral count): 36 hpi; for target (unweighted spectral count, OC43 Probe II capture): type n_36_v, FDR<10%; for target (unweighted spectral count, OC43 Probe II capture) / target (unweighted spectral count): tested against no-probe control; for target (unweighted spectral count): OC43 Probe II, infected cells; for target (unweighted spectral count, OC43 Probe II) / background (unweighted spectral count, no-probe control): type n_48_v, 48 hpi; for target (unweighted spectral count, OC43 Probe II): OC43 Probe II capture on infected cells; for background (unweighted spectral count, no-probe control): no-probe control on infected cells; for target (spectral count) / background (spectral count): type s_36_m, Probe II; for target (spectral count): HCoV-OC43-infected HCT-8 cells; for background (spectral count): uninfected-probe control.

A further assay concerns SARS-CoV-2 gRNA. The format is binding.
The next assay deals with SARS-CoV-2. The format is cell-based. The settings on record: for change in viral RNA levels (gRNA, N sgRNA) after siRNA depletion: Calu-3 cells, 50 nM siRNA, RT-qPCR, relative to siNC. A general note: Real-time PCR tracks product formation cycle by cycle.
Assay [1] deals with SARS-CoV-2 gRNA and sgRNAs. The format is binding. The settings on record: for target (unweighted spectral count in RNP capture): Probe II capture, LC-MS/MS LFQ; for background (unweighted spectral count in control): no-probe control pull-down, used as background for Probe II.
The next assay has as its system gRNA of HCoV-OC43. The format is binding. The note with it: for target (spectral count, OC43 Probe I RNP capture) / background (spectral count, no-probe control): type n_48_v: 48 hours post-infection; for target (spectral count, OC43 Probe I RNP capture): infected cells, unweighted spectral count; for background (spectral count, no-probe control): no-probe control on infected cells.

“Also recorded” adds a separate entry of the source. Like-named read-outs stand apart in the source and are kept apart here.

B1: ZC3HAV1: host protein, UniProt Q7Z2W4 (protein, UniProt Q7Z2W4 2-902, looked up)
Zinc finger CCCH-type …: ADPEVCCFITKILCAHGGRMALDALLQEIALSEPQLCEVLQVAGPDRFVVLETGGEAGITRSVVATTRARVCRRKYCQRPCDNLHLCKLNLLGRCNYSQSERNLCKYSHEVLSEENFKVLKNHELSGLNKEELAVLLLQSDPFFMPEICKSYKGEGRQQICNQQPPCSRLHICDHFTRGNCRFPNCLRSHNLMDRKVLAIMREHGLNPDVVQNIQDICNSKHMQKNPPGPRAPSSHRRNMAYRARSKSRDRFFQGSQEFLASASASAERSCTPSPDQISHRASLEDAPVDDLTRKFTYLGSQDRARPPSGSSKATDLGGTSQAGTSQRFLENGSQEDLLHGNPGSTYLASNSTSAPNWKSLTSWTNDQGARRKTVFSPTLPAARSSLGSLQTPEAVTTRKGTGLLSSDYRIINGKSGTQDIQPGPLFNNNADGVATDITSTRSLNYKSTSSGHREISSPRIQDAGPASRDVQATGRIADDADPRVALVNDSLSDVTSTTSSRVDDHDSEEICLDHLCKGCPLNGSCSKVHFHLPYRWQMLIGKTWTDFEHMETIEKGYCNPGIHLCSVGSYTINFRVMSCDSFPIRRLSTPSSVTKPANSVFTTKWIWYWKNESGTWIQYGEEKDKRKNSNVDSSYLESLYQSCPRGVVPFQAGSRNYELSFQGMIQTNIASKTQKDVIRRPTFVPQWYVQQMKRGPDHQPAKTSSVSLTATFRPQEDFCFLSSKKYKLSEIHHLHPEYVRVSEHFKASMKNFKIEKIKKIENSELLDKFTWKKSQMKEEGKLLFYATSRAYVESICSNNFDSFLHETHENKYGKGIYFAKDAIYSHKNCPYDAKNVVMFVAQVLVGKFTEGNITYTSPPPQFDSCVDTRSNPSVFVIFQKDQVYPQYVIEYTEDKACVIS
With B1, in the assay on HCoV-OC43 gRNA and sgRNA, the “target (unweighted spectral count, OC43 Probe II capture)” value is given as 18; the “target (unweighted spectral count, OC43 Probe II)” value is reported as 22; the “background (unweighted spectral count, no-probe control)” value was 1; the “target (spectral count)” value is 18. Besides, the “background (spectral count)” value with HCoV-OC43 gRNA and sgRNA is on record as 1. Also, in the assay with HCoV-OC43 gRNA and sgRNA (12 hpi (type n_12_v)), the “target (unweighted spectral count)” value was 8. Also, the “target (unweighted spectral count)” value in the assay with HCoV-OC43 gRNA and sgRNA (24 hpi (type n_24_v)) is reported as 13. Moreover, the “enrichment in SARS-CoV-2 Probe I RNP capture” value in the assay on SARS-CoV-2 gRNA is “enriched; also recorded: found in the SARS-CoV-2 experiments”. Moreover, the “target (unweighted spectral count of the protein in the RNP capture)” value in the assay with SARS-CoV-2 gRNA ([…], LC-MS/MS, Probe I sample (first 199 lines of Table 2)) was 31. Also, in the assay with SARS-CoV-2, the “antiviral or proviral role of the host protein indicated by knockdown” value is listed as “may act as antiviral factors” and the “change in viral RNA levels (gRNA, N sgRNA) after siRNA depletion” value is given as “increased viral RNAs”. In assay [1], the “enrichment in SARS-CoV-2 Probe II RNP capture” value is “enriched; also recorded: found in the SARS-CoV-2 experiments”, the “target (unweighted spectral count in RNP capture)” value came to 48 and the “background (unweighted spectral count in control)” value is on record as 1. Also, in the assay with gRNA of HCoV-OC43, the “target (spectral count, OC43 Probe I RNP capture)” value was found to be 17 and the “background (spectral count, no-probe control)” value is reported as 1.

B2: CELF1: host protein, UniProt Q92879 (protein, UniProt Q92879 1-486, looked up)
CUGBP Elav-like family member …: MNGTLDHPDQPDLDAIKMFVGQVPRTWSEKDLRELFEQYGAVYEINVLRDRSQNPPQSKGCCFVTFYTRKAALEAQNALHNMKVLPGMHHPIQMKPADSEKNNAVEDRKLFIGMISKKCTENDIRVMFSSFGQIEECRILRGPDGLSRGCAFVTFTTRAMAQTAIKAMHQAQTMEGCSSPMVVKFADTQKDKEQKRMAQQLQQQMQQISAASVWGNLAGLNTLGPQYLALYLQLLQQTASSGNLNTLSSLHPMGGLNAMQLQNLAALAAAASAAQNTPSGTNALTTSSSPLSVLTSSGSSPSSSSSNSVNPIASLGALQTLAGATAGLNVGSLAGMAALNGGLGSSGLSNGTGSTMEALTQAYSGIQQYAAAALPTLYNQNLLTQQSIGAAGSQKEGPEGANLFIYHLPQEFGDQDLLQMFMPFGNVVSAKVFIDKQTNLSKCFGFVSYDNPVSAQAAIQSMNGFQIGMKRLKVQLKRSKNDSKPY
Turning to B2, in the assay with HCoV-OC43 gRNA and sgRNA, the “target (unweighted spectral count, OC43 Probe II capture)” value was determined as 14; the “target (unweighted spectral count, OC43 Probe II)” value turned out to be 14; the “background (unweighted spectral count, no-probe control)” value is reported as 1; the “target (spectral count)” value is 14. The “background (spectral count)” value in the assay with HCoV-OC43 gRNA and sgRNA was 1. Also, the “target (unweighted spectral count)” value with HCoV-OC43 gRNA and sgRNA (24 hpi (type n_24_v)) stood at 6. Moreover, the “enrichment in SARS-CoV-2 Probe I RNP capture” value in the assay with SARS-CoV-2 gRNA is given as “found in the SARS-CoV-2 experiments”. Further, the “change in viral RNA levels (gRNA, N sgRNA) after siRNA depletion” value in the assay on SARS-CoV-2 was “increased viral RNAs; also recorded: only modest”. For the same molecule, in assay [1], the “enrichment in SARS-CoV-2 Probe II RNP capture” value is recorded as “found in the SARS-CoV-2 experiments”, the “target (unweighted spectral count in RNP capture)” value is listed as 25 and the “background (unweighted spectral count in control)” value is 1. Further, the “target (spectral count)” value with gRNA of HCoV-OC43 (type g_36_m, HCoV-OC43-infected HCT-8 cells, 36 hpi, Probe I) turned out to be 15. The “background (spectral count)” value with gRNA of HCoV-OC43 (type g_36_m, uninfected-probe control, 36 hpi, Probe I) came out at 1. Besides, in the assay with gRNA of HCoV-OC43, the “target (spectral count, OC43 Probe I RNP capture)” value is 16 and the “background (spectral count, no-probe control)” value was 1.
